Experimental data as given in article PMC9638894.

Key:
[1] = biological target: type IF CRISPR RNA guided surveillance complex (Csy) (UniProt Q02MM2); assay: differential scanning fluorimetry; purified Csy (0.323 uM) or AcrIF2-bound Csy (0.475 uM) in 100 mM citrate phosphate buffer pH 7.5 with SYPRO orange; 25°C to 95°C at 1°C/min; maximum intensity of each curve compared
[2] = biological target: type IF CRISPR RNA guided surveillance complex (Csy) (UniProt Q02MM2); assay: ITC; AcrIF9 or AcrIF2 binding to the Csy complex; conditions not told in the text shown (Supplemental Figure S8)

AcrIF2 (natural protein), sequence (Q6TM72 whole entry): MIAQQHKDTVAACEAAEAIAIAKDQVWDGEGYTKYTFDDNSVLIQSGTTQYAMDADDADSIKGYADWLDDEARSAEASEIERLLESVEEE

increase in temperature at the maximum DSF intensity compared to unbound Csy [1]: 3 °C
dH [2]: < 0
Substance: AcrIF2 (natural protein)
